Data taken from patent US20240116985A1 (published 2024).
Starred links: 1 amine or outer side, 2 acyl side, 3 side chain; linkers in the order of their positions; H or OH if unused. Positions of bridges follow the written chain, without caps; N, C: chain ends. Non-standard residues stand in square brackets, D forms with d. Primed or numbered codes have the meaning given here. B5(15) = 2-amino-2-(pent-4-en-1-yl)hept-6-enoic acid (2,2-bis(4-pentenyl)glycine), stitching residue bearing two staples, C=CCCCC(CCCC=C)(N[*:1])C(=O)[*:2]; PyrS2″ = (S)-3-amino-1-((pent-4-en-1-yloxy)carbonyl)pyrrolidine-3-carboxylic acid (stapling residue), C=CCCCOC(=O)N1CC[C@@](N[*:1])(C(=O)[*:2])C1; B5(23) = 2-amino-2-(pent-4-en-1-yl)hept-6-enoic acid (2,2-bis(4-pentenyl)glycine), stitching residue, C=CCCCC(CCCC=C)(N[*:1])C(=O)[*:2]; B5(4) = 2,2-bis(4-pentenyl)glycine = 2-amino-2-(pent-4-en-1-yl)hept-6-enoic acid (stitching residue), C=CCCCC(CCCC=C)(N[*:1])C(=O)[*:2]; B5(5) = 2,2-bis(4-pentenyl)glycine, 2-amino-2-(pent-4-en-1-yl)hept-6-enoic acid (stitching residue), C=CCCCC(CCCC=C)(N[*:1])C(=O)[*:2]; PyrS2 = (S)-3-amino-1-((pent-4-en-1-yloxy)carbonyl)pyrrolidine-3-carboxylic acid, C=CCCCOC(=O)N1CC[C@@](N[*:1])(C(=O)[*:2])C1; B5(27) = 2-amino-2-(pent-4-en-1-yl)hept-6-enoic acid (two alkene side-chain arms), C=CCCCC(CCCC=C)(N[*:1])C(=O)[*:2]; F2PipAbu = (S)-2-amino-4-(4,4-difluoropiperidin-1-yl)butanoic acid, O=C([C@H](CCN1CCC(F)(F)CC1)N[*:1])[*:2]; MorphAsn = (S)-2-amino-4-morpholino-4-oxobutanoic acid, O=C(C[C@H](N[*:1])C(=O)[*:2])N1CCOCC1; Phe(3-COOH) = N[C@@H](Cc1cccc(C(=O)O)c1)C(=O)O; Bta = N[C@@H](Cc1csc2ccccc12)C(=O)O; αAllylPro = C=CC[C@@]1(C(=O)O)CCCN1; tBuAla = CC(C)(C)C[C@H](N)C(=O)O; 3Thi = N[C@@H](Cc1ccsc1)C(=O)O; Cha = N[C@@H](CC1CCCCC1)C(=O)O; S8 = C=CCCCCCC[C@](C)(N)C(=O)O; hLeu = CC(C)CC[C@H](N)C(=O)O; PyrS2(4) = not defined here; hSer = N[C@@H](CCO)C(=O)O; Nle = CCCC[C@H](N)C(=O)O

T1: B-cat-Halo (beta-catenin HaloTag NanoBRET construct expressed in HEK293 cells) (UniProt P35222 1-781, HaloTag NanoBRET 618 Ligand bound to the HaloTag)
T1 sequence (looked up): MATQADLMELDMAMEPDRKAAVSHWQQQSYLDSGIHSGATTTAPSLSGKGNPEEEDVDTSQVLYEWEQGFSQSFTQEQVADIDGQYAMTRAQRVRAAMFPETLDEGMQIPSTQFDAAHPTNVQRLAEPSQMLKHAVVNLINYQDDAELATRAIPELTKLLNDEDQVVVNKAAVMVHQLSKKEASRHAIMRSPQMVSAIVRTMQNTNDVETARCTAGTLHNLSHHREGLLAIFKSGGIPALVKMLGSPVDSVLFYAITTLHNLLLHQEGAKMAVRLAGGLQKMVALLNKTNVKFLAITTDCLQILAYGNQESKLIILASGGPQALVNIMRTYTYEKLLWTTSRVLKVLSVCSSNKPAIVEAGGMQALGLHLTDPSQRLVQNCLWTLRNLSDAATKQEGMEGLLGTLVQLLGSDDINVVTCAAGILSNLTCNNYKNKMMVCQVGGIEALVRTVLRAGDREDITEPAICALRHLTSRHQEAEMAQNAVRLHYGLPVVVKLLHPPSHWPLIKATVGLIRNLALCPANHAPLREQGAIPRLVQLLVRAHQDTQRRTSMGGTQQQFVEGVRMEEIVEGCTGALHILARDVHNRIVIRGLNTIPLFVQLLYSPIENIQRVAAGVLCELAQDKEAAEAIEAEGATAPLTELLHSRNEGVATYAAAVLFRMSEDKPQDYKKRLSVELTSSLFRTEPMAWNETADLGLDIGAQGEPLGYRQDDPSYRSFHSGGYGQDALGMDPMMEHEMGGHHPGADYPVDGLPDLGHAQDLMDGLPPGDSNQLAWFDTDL

T2: Bcat-Halo (UniProt P35222 1-781)
T2 sequence (looked up): T1 sequence (looked up)

T3: B-cat-Halo (beta-catenin HaloTag NanoBRET construct expressed in HEK293 cells) (UniProt P35222 1-781)
T3 sequence (looked up): T1 sequence (looked up)

B1: I-1505: Ac-PL3-Asp-Npg-B5-Asp-Asp-Ala-F2PipAbu-Phe-Leu-PyrS2-3Thi-BztA-Gln-NH2 (peptide)
peptide: Ac-[αAllylPro]D[tBuAla][B5(27)]DDA[F2PipAbu]FL[PyrS2][3Thi][Bta]Q-NH2
modifications: staple 1-4, 4-11
B2: I-1507: Ac-PL3-Asp-Npg-B5-Asp-Asp-Ala-MorphAsn-Phe-Leu-PyrS2-3Thi-BztA-Gln-NH2 (peptide)
peptide: Ac-[αAllylPro]D[tBuAla][B5(27)]DDA[MorphAsn]FL[PyrS2][3Thi][Bta]Q-NH2
modifications: staple 1-4, 4-11
B3: I-1509: Ac-PL3-Asp-Phe-B5-Asp-Asp-Ala-Ala-Phe-Leu-PyrS2-3Thi-BztA-Gln-NH2 (peptide)
peptide: Ac-[αAllylPro]DF[B5(5)]DDAAFL[PyrS2(4)][3Thi][Bta]Q-NH2
modifications: staple 1-4, 4-11; not fully specified; printed as I-1509: Ac-PL3-Asp-Phe-B5-Asp-Asp-Ala-Ala-Phe-Leu-PyrS2-3Thi-BztA-Gln-NH2; reading uncertain
B4: I-1510: Ac-PL3-Asp-Phe-B5-Asp-Asp-Ala-Ala-Phe-Leu-PyrS2-3Thi-BztA-Hse-NH2 (peptide)
peptide: Ac-[αAllylPro]DF[B5(27)]DDAAFL[PyrS2][3Thi][Bta][hSer]-NH2
modifications: staple 1-4, 4-11
B5: I-1511: Ac-PL3-Asp-Tyr-B5-Asp-Asp-Ala-Ala-Phe-Leu-PyrS2-3Thi-BztA-Gln-NH2 (peptide)
peptide: Ac-[αAllylPro]DY[B5(27)]DDAAFL[PyrS2][3Thi][Bta]Q-NH2
modifications: staple 1-4, 4-11
B6: I-1512: Ac-PL3-Asp-Tyr-B5-Asp-Asp-Ala-Ala-Phe-Leu-PyrS2-3Thi-BztA-Hse-NH2 (peptide)
peptide: Ac-[αAllylPro]DY[B5(5)]DDAAFL[PyrS2″][3Thi][Bta][hSer]-NH2
modifications: staple 1-4, 4-11
B7: I-1513: Ac-PL3-Asp-Ser-B5-Asp-Asp-Ala-Ala-Phe-Leu-PyrS2-3Thi-BztA-Gln-NH2 (peptide)
peptide: Ac-[αAllylPro]DS[B5(5)]DDAAFL[PyrS2″][3Thi][Bta]Q-NH2
modifications: staple 1-4, 4-11
B8: I-1515: Ac-PL3-Asp-Thr-B5-Asp-Asp-Ala-Ala-Phe-Leu-PyrS2-3Thi-BztA-Gln-NH2 (peptide)
peptide: Ac-[αAllylPro]DT[B5(5)]DDAAFL[PyrS2″][3Thi][Bta]Q-NH2
modifications: staple 1-4, 4-11
B9: I-1516: Ac-PL3-Asp-Thr-B5-Asp-Asp-Ala-Ala-Phe-Leu-PyrS2-3Thi-BztA-Hse-NH2 (peptide)
peptide: Ac-[αAllylPro]DT[B5(5)]DDAAFL[PyrS2″][3Thi][Bta][hSer]-NH2
modifications: staple 1-4, 4-11
B10: I-1517: Ac-PL3-Asp-Asn-B5-Asp-Asp-Ala-Ala-Phe-Leu-PyrS2-3Thi-BztA-Gln-NH2 (peptide)
peptide: Ac-[αAllylPro]DN[B5(5)]DDAAFL[PyrS2″][3Thi][Bta]Q-NH2
modifications: staple 1-4, 4-11
B11: I-1518: Ac-PL3-Asp-Asn-B5-Asp-Asp-Ala-Ala-Phe-Leu-PyrS2-3Thi-BztA-Hse-NH2 (peptide)
peptide: Ac-[αAllylPro]DN[B5(5)]DDAAFL[PyrS2″][3Thi][Bta][hSer]-NH2
modifications: staple 1-4, 4-11
B12: I-1519: Ac-PL3-Asp-Cha-B5-Asp-Asp-Ala-Ala-Phe-Leu-PyrS2-3Thi-BztA-Gln-NH2 (peptide)
peptide: Ac-[αAllylPro]D[Cha][B5(5)]DDAAFL[PyrS2″][3Thi][Bta]Q-NH2
modifications: staple 1-4, 4-11
B13: I-1520: Ac-PL3-Asp-Cha-B5-Asp-Asp-Ala-Ala-Phe-Leu-PyrS2-3Thi-BztA-Hse-NH2 (peptide)
peptide: Ac-[αAllylPro]D[Cha][B5(5)]DDAAFL[PyrS2(4)][3Thi][Bta][hSer]-NH2
modifications: staple 1-4, 4-11; not fully specified; printed as I-1520: Ac-PL3-Asp-Cha-B5-Asp-Asp-Ala-Ala-Phe-Leu-PyrS2-3Thi-BztA-Hse-NH2; reading uncertain
B14: I-1521: Ac-PL3-Asp-nLeu-B5-Asp-Glu-Ala-Ala-Phe-Gln-S8-Phe-BztA-Gln-NH2 (peptide)
peptide: Ac-[αAllylPro]D[Nle][B5(5)]DEAAFQ[S8]F[Bta]Q-NH2
modifications: staple 1-4, 4-11; also: staple isomer, earlier eluting HPLC peak
B15: I-1522: Ac-PL3-Asp-nLeu-B5-Asp-Glu-Ala-Ala-Phe-Gln-S8-Phe-BztA-Gln-NH2 (peptide)
peptide: Ac-[αAllylPro]D[Nle][B5(5)]DEAAFQ[S8]F[Bta]Q-NH2
modifications: staple 1-4, 4-11
B16: I-1523: Ac-PL3-Asp-nLeu-B5-Asp-Glu-Ala-Ala-Phe-Leu-S8-Phe-BztA-Gln-NH2 (peptide)
peptide: Ac-[αAllylPro]D[Nle][B5(5)]DEAAFL[S8]F[Bta]Q-NH2
modifications: staple 1-4, 4-11
B17: I-1524: Ac-PL3-Asp-nLeu-B5-Asp-Glu-Ala-Ala-Phe-Hse-S8-Phe-BztA-Gln-NH2 (peptide)
peptide: Ac-[αAllylPro]D[Nle][B5(5)]DEAAF[hSer][S8]F[Bta]Q-NH2
modifications: staple 1-4, 4-11; also: staple isomer, earlier eluting HPLC peak
B18: I-1525: Ac-PL3-Asp-nLeu-B5-Asp-Glu-Ala-Ala-Phe-Hse-S8-Phe-BztA-Gln-NH2 (peptide)
peptide: Ac-[αAllylPro]D[Nle][B5(5)]DEAAF[hSer][S8]F[Bta]Q-NH2
modifications: staple 1-4, 4-11
B19: I-2125 (peptide)
peptide: Ac-[αAllylPro]D[tBuAla][B5(4)]DYAA[Phe(3-COOH)][hSer][PyrS2″][3Thi][Bta]Q-NH2
modifications: staple 1-4, 4-11; also: later eluting HPLC isomer composition
B20: I-2126 (peptide)
peptide: Ac-[αAllylPro]D[tBuAla][B5(4)]DYAA[Phe(3-COOH)]L[PyrS2″][3Thi][Bta]Q-NH2
modifications: staple 1-4, 4-11
B21: I-2127 (peptide)
peptide: Ac-[αAllylPro]D[tBuAla][B5(4)]DWAA[Phe(3-COOH)]N[PyrS2″][3Thi][Bta]Q-NH2
modifications: staple 1-4, 4-11
B22: I-2128 (peptide)
peptide: Ac-[αAllylPro]D[tBuAla][B5(4)]DWAA[Phe(3-COOH)][hSer][PyrS2″][3Thi][Bta]Q-NH2
modifications: staple 1-4, 4-11
B23: I-2129 (peptide)
peptide: Ac-[αAllylPro]D[tBuAla][B5(4)]DWAA[Phe(3-COOH)]L[PyrS2″][3Thi][Bta]Q-NH2
modifications: staple 1-4, 4-11
B24: I-1542 (peptide)
peptide: Ac-[αAllylPro]DQ[B5(15)]DEAAF[hSer][S8]F[Bta]Q-NH2
modifications: staple 1-4, 4-11; not fully specified; printed as Ac-PL3-Asp-Gln-B5-Asp-Glu-Ala-Ala-Phe-Hse-S8-Phe-BztA-Gln-NH2
B25: I-1548 (peptide)
peptide: Ac-[αAllylPro]D[hSer][B5(15)]DEAAF[hSer][S8]F[Bta]Q-NH2
modifications: staple 1-4, 4-11; not fully specified
B26: I-1549 (peptide)
peptide: Ac-[αAllylPro]DF[B5(15)]DEAAFQ[S8]F[Bta]Q-NH2
modifications: staple 1-4, 4-11
B27: I-1536 (peptide)
peptide: Ac-[αAllylPro]D[hLeu][B5(15)]DEAAFL[S8]F[Bta]Q-NH2
modifications: staple 1-4, 4-11
B28: I-1537 (peptide)
peptide: Ac-[αAllylPro]D[hLeu][B5(15)]DEAAF[hSer][S8]F[Bta]Q-NH2
modifications: staple 1-4, 4-11; not fully specified; printed as Ac-PL3-Asp-Hleu-B5-Asp-Glu-Ala-Ala-Phe-Hse-S8-Phe-BztA-Gln-NH2
B29: I-1538 (peptide)
peptide: Ac-[αAllylPro]D[hLeu][B5(15)]DEAAF[hSer][S8]F[Bta]Q-NH2
modifications: staple 1-4, 4-11; not fully specified; printed as Ac-PL3-Asp-Hleu-B5-Asp-Glu-Ala-Ala-Phe-Hse-S8-Phe-BztA-Gln-NH2
B30: I-1543 (peptide)
peptide: Ac-[αAllylPro]DQ[B5(15)]DEAAF[hSer][S8]F[Bta]Q-NH2
modifications: staple 1-4, 4-11; not fully specified; printed as Ac-PL3-Asp-Gln-B5-Asp-Glu-Ala-Ala-Phe-Hse-S8-Phe-BztA-Gln-NH2
B31: I-1555 (peptide)
peptide: Ac-[αAllylPro]D[tBuAla][B5(23)]NNAAFN[PyrS2][3Thi][Bta]Q-NH2
modifications: staple 1-4, 4-11

biological target: T1, B-cat-Halo (beta-catenin HaloTag …); assay: cell-based or functional assay

Row | Binder | NanoBRET Abs IC50 [µM]
1 | B1 | > 20
2 | B2 | > 20
3 | B3 | 24.5
4 | B4 | 31.8
5 | B5 | > 20
6 | B6 | > 20
7 | B7 | > 20
8 | B8 | > 20
9 | B9 | > 20
10 | B10 | > 20
11 | B11 | 24.2
12 | B12 | 12.8
13 | B13 | 17.4
14 | B14 | 6
15 | B15 | 5.8
16 | B16 | 8
17 | B17 | 8.1
18 | B18 | 10.8

biological target: T2, Bcat-Halo; assay: cell-based or functional assay

Row | Binder | NanoBRET Abs IC50 [µM]
19 | B19 | 41.2
20 | B20 | 29.5
21 | B21 | 40.8
22 | B22 | 27
23 | B23 | 44

biological target: T3, B-cat-Halo (beta-catenin HaloTag …); assay: cell-based or functional assay

Row | Binder | NanoBRET Abs IC50 [µM]
24 | B24 | 49.1
25 | B25 | > 20
26 | B26 | 11.6
27 | B27 | 18.4
28 | B28 | 13.9
29 | B29 | 11.8
30 | B30 | > 20
31 | B31 | 29.3
